The results in this text go back to PMC5839504 (Cell, 2017).

For experiment [1], the target named is KlCdc13EBM-N (KlCdc13 residues 213-222) (Kluyveromyces lactis). As to the kind of experiment: ITC. In general terms: Isothermal titration calorimetry measures the heat released or taken up as one component is titrated into another.
Experiment [2] addresses K. lactis Cdc13EBM (KlCdc13 residues 213-240) (Kluyveromyces lactis). As to the kind of experiment: ITC.
Experiment [3] has as its target T1, S. cerevisiae Ku70/80 heterodimer (S. cerevisiae, UniProt P32807 1-602; Q04437 1-629).
T1 sequence (looked up) 1: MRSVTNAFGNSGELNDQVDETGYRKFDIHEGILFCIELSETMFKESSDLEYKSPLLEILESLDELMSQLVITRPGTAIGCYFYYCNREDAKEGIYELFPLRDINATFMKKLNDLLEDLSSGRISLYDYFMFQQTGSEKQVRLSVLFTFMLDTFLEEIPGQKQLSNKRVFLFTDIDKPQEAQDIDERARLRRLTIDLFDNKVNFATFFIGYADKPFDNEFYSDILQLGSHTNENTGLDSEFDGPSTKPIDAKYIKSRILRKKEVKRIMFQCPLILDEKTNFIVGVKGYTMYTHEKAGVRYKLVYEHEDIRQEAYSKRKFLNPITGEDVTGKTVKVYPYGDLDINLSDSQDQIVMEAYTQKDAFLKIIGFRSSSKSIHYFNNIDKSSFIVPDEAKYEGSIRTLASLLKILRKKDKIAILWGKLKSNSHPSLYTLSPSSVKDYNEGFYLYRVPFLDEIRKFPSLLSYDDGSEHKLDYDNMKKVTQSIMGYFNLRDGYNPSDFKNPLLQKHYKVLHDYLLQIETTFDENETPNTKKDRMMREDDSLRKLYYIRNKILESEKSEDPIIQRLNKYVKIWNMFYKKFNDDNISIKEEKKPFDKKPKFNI
T1 sequence (looked up) 2: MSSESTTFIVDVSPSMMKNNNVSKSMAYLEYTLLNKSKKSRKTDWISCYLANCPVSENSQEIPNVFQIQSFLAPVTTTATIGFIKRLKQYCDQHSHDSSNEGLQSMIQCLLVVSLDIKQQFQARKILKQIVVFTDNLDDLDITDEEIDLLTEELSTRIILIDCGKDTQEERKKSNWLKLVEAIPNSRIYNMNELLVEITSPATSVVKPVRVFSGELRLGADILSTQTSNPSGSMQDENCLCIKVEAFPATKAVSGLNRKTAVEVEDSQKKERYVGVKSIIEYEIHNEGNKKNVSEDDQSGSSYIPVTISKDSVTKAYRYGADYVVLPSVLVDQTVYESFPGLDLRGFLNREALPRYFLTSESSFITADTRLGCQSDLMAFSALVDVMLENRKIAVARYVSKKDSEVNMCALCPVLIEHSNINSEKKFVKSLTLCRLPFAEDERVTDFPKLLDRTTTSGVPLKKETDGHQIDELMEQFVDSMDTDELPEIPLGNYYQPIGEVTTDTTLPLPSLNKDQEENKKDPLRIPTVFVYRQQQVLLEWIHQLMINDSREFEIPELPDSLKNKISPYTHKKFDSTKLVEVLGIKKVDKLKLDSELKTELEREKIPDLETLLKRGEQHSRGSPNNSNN
As to the kind of experiment: pull-down.

Experiment [4] addresses T2, S. cerevisiae Ku80vWA (residues 2-200) (S. cerevisiae, UniProt Q04437 2-200).
T2 sequence (looked up): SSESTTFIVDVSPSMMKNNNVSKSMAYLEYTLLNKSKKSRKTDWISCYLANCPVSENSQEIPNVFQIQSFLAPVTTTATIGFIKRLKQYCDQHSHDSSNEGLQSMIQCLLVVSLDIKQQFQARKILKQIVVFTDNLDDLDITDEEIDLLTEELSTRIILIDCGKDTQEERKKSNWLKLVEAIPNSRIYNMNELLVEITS
As to the kind of experiment: ITC.

B1: N-terminal domain of K. lactis Est1 (KlEst1, residues 2-600) (domain or fragment)
chain: DQKLNTDLQETFSGFQKQLQSVLETDFFRDDSLMKGAIQMIHSKIMQMLLQSLIPEGLHQDITTDTGSKKSEIRSSDAHRILDLTWKHVHYPIFKYFQNWRNRNVAEGSRPNYAGHRQLNSILQKIFPQIHKLYYSTLELIFANYNLTALIPSDTRSKLNISTKKLNDDASNVLKPEDSFSIDCVMASQRCLLYIGCSQRYKIIMEHLSDRYQQADFQKPLRYLDIASTIVPSVGETFLQRGICYTHTKNFGNAAYQFVRSSLSRLPSDAGIPNFTNLLGDPNGSLFKKLLNSLDDLKVQETIKKRIINMEIMEFYILPLIGSHIFPQTWKNNRHSDRLKHFQTLLFDKIEIRYIKNISMIFQDLILLIGSFHMYQMINGVSSNTTSSAATIMPNDKTLMNGNGSANSINNSGNSNIRSIQSETKFLEFIFKFFTHLIDKVIMKEFKNCEMFQYLAMARIMMCWIKSHKNVLKFAHRSTSFCQSMVNLTNELLSSNDLSISFEHLHRPTRDYFYEEDIMLKEFGPTKFTLSDFNDEKLLSMDNLPDRLVGKSKNKLTAKEEHSSRVQVLVYSNKKFLEKNCCGFKLDTEKKRYVHTAVK
Regarding B1, the dissociation constant (Kd) in experiment [1] is 15.3 µM; in experiment [2], 5.9 µM.

B2: Sir4KBM (GST pull-down) (peptide, UniProt P11978 100-115, looked up)
chain: EKISNSKLLSLLRSKT
In the case of B2, in experiment [3], the binding result is reported as “binds”.

B3: S. cerevisiae Sir4KBM (residues 100-115) (peptide, UniProt P11978 100-115, looked up)
chain: EKISNSKLLSLLRSKT
B3 gave a Kd in experiment [4] of 5.1 µM.

B4: Sir4KBM L108R (peptide, UniProt P11978 100-115, looked up)
chain: EKISNSKLRSLLRSKT
Consider B4, for which the binding result in experiment [4] was “binds”.

By Kd is commonly meant the equilibrium constant for the complex coming apart. A low value points to higher affinity.
